# Columns and labels:
# [1] = biological target: Grouper nervous necrosis virus capsid protein, full length (338 residues) (orange-spotted grouper nervous necrosis virus (OSGNNV)); experiment: SDS-PAGE; oligomerization of three CPs in solution, bands compared to protein standards
# [2] = biological target: N-ARM deletion mutant of GNNV capsid protein (residues 35-338) (orange-spotted grouper nervous necrosis virus (OSGNNV)); experiment: as above
# [3] = biological target: Truncated P-domain of GNNV capsid protein (residues 214-338) (orange-spotted grouper nervous necrosis virus (OSGNNV)); experiment: SEC; purified P-domain on Superdex 75 10/300 GL in the presence of Ca2+, against protein standards
# [4] = biological target: Truncated P-domain of GNNV capsid protein (residues 214-338) (orange-spotted grouper nervous necrosis virus (OSGNNV)); experiment: crystal structure; truncated P-domain (214-338), 1.2 Å; crystals from 0.2 M Ca acetate, 0.1 M MES (pH 6.5), 10% PEG8000
# [5] = biological target: delta-P-domain mutant of GNNV capsid protein (residues 35-217) (orange-spotted grouper nervous necrosis virus (OSGNNV)); experiment: crystal structure; T = 1 delta-P-domain mutant (35-217), 3.1 Å; crystals from 0.2 M MgCl2, 0.1 M HEPES-Na (pH 7.5), 30% PEG400
# [6] = biological target: delta-P-domain mutant of GNNV capsid protein (residues 35-217) (orange-spotted grouper nervous necrosis virus (OSGNNV)); experiment: SDS-PAGE; oligomerization of three CPs in solution, bands compared to protein standards
substance,measurement,setting,value
"Grouper nervous necrosis virus capsid protein, full length (338 residues) (natural protein)",stoichiometry N,[1],3
N-ARM deletion mutant of GNNV capsid protein (residues 35-338) (domain or fragment),stoichiometry N,[2],3
Truncated P-domain of GNNV capsid protein (residues 214-338) (domain or fragment),stoichiometry N,[3],3
same,stoichiometry N,[4],3
delta-P-domain mutant of GNNV capsid protein (residues 35-217) (domain or fragment),stoichiometry N,[5],60
same,stoichiometry N,[6],2

# From article PMC4619592
